# According to patent US20250215103A1 (Hoffmann-La Roche, published 2025):
# B1: bispecific CrossMab 8012 (PD1-0103-0312/51A165) (bispecific antibody, human IgG1, kappa, L234A L235A)
# heavy 1: EVQLQQSGPELVKPGASVKMSCKASGYTFTSYVMHWVKQKPGQGLEWIGYVNPYNDDTKYNEKFRGKATLTSDKSSSTAYMELSSLTSEDSAVYYCARSYYYYSMDNWGQGTSVTVSSASTKGPSVFPLAPSSKSTSGGTAALGCLVEDYFPEPVTVSWNSGALTSGVHTFPAVLQSSGLYSLSSVVTVPSSSLGTQTYICNVNHKPSNTKVDEKVEPKSCDKTHTCPPCPAPEAAGGPSVFLFPPKPKDTLMISRTPEVTCVVVDVSHEDPEVKFNWYVDGVEVHNAKTKPREEQYNSTYRVVSVLTVLHQDWLNGKEYKCKVSNKALGAPIEKTISKAKGQPREPQVCTLPPSRDELTKNQVSLSCAVKGFYPSDIAVEWESNGQPENNYKTTPPVLDSDGSFFLVSKLTVDKSRWQQGNVFSCSVMHEALHNHYTQKSLSLSP
# light 1: QIVLTQSPAIMSASPGEKVTVTCSASSSIRYMHWYQQKPGTSPKRWIYDTSELASGVPARFSGSGSGTSYSLTINSMEAEDAATYYCHQRSSYPFTFGGGTKLEIKRTVAAPSVFIFPPSDRKLKSGTASVVCLLNNFYPREAKVQWKVDNALQSGNSQESVTEQDSKDSTYSLSSTLTLSKADYEKHKVYACEVTHQGLSSPVTKSFNRGEC
# heavy 2: not shown
# light 2: EVQLLESGGGLVQPGGSLRLSCAASGFSFSSYTMSWVRQAPGKGLEWVATISGGGRDIYYPDSVKGRFTISRDNSKNTLYLQMNSLRAEDTAVYYCVLLTGRVYFALDSWGQGTLVTVSSASVAAPSVFIFPPSDEQLKSGTASVVCLLNNFYPREAKVQWKVDNALQSGNSQESVTEQDSKDSTYSLSSTLTLSKADYEKHKVYACEVTHQGLSSPVTKSFNRGEC
# B2: bispecific CrossMab 8013 (PD1-0103-0312/1026) (bispecific antibody, human IgG1, kappa, L234A L235A)
# heavy 1: QSMQESGPGLVKPSQTLSLTCTVSGFSLSSYAMSWIRQHPGKGLEWIGYIWSGGSTDYASWAKSRVTISKTSTTVSLKLSSVTAADTAVYYCARRYGTSYPDYGDASGFDPWGQGTLVTVSSASTKGPSVFPLAPSSKSTSGGTAALGCLVEDYFPEPVTVSWNSGALTSGVHTFPAVLQSSGLYSLSSVVTVPSSSLGTQTYICNVNHKPSNTKVDEKVEPKSCDKTHTCPPCPAPEAAGGPSVFLFPPKPKDTLMISRTPEVTCVVVDVSHEDPEVKFNWYVDGVEVHNAKTKPREEQYNSTYRVVSVLTVLHQDWLNGKEYKCKVSNKALGAPIEKTISKAKGQPREPQVCTLPPSRDELTKNQVSLSCAVKGFYPSDIAVEWESNGQPENNYKTTPPVLDSDGSFFLVSKLTVDKSRWQQGNVFSCSVMHEALHNHYTQKSLSLSP
# light 1: AIQLTQSPSSLSASVGDRVTITCRASQSISSYLAWYQQKPGKAPKLLIYRASTLASGVPSRFSGSGSGTDFTLTISSLQPEDFATYYCQQNYASSNVDNTFGGGTKVEIKRTVAAPSVFIFPPSDRKLKSGTASVVCLLNNFYPREAKVQWKVDNALQSGNSQESVTEQDSKDSTYSLSSTLTLSKADYEKHKVYACEVTHQGLSSPVTKSFNRGEC
# heavy 2: not shown
# light 2: B1 light 2
# B3: control 2+1 CrossMab 8159 (PD1-0103-0312/Nada TCB-format) (bispecific antibody, human IgG1, kappa, L234A L235A)
# light 1: B1 light 2
# light 2: DIQMTQSPSSLSASVGDRVTITCRASQDVGSGVAWYQQKPGKAPKLLIGSASGLYSGVPSRFSGSRSGTDFTLTISSLQPEDFATYYCQQSASGGSTFGQGTKVEIKRTVAAPSVFIFPPSDRKLKSGTASVVCLLNNFYPREAKVQWKVDNALQSGNSQESVTEQDSKDSTYSLSSTLTLSKADYEKHKVYACEVTHQGLSSPVTKSFNRGEC
# heavy 1: DIVMTQSPDSLAVSLGERATINCKASESVDTSDNSFIHWYQQKPGQSPKLLIYRSSTLESGVPDRFSGSGSGTDFTLTISSLQAEDVAVYYCQQNYDVPWTFGQGTKVEIKSSASTKGPSVFPLAPSSKSTSGGTAALGCLVKDYFPEPVTVSWNSGALTSGVHTFPAVLQSSGLYSLSSVVTVPSSSLGTQTYICNVNHKPSNTKVDKKVEPKSCDGGGGSGGGGSEVQLVESGGGLVQPGGSLRLSCAASGFSIAGTAIHWVRQAPGKGLEWVASISPGGGSTAYADSVKGRFTISADTSKNTAYLQMNSLRAEDTAVYYCSRSGGSGASAMDYWGQGTLVTVSSASTKGPSVFPLAPSSKSTSGGTAALGCLVEDYFPEPVTVSWNSGALTSGVHTFPAVLQSSGLYSLSSVVTVPSSSLGTQTYICNVNHKPSNTKVDEKVEPKSCDKTHTCPPCPAPEAAGGPSVFLFPPKPKDTLMISRTPEVTCVVVDVSHEDPEVKFNWYVDGVEVHNAKTKPREEQYNSTYRVVSVLTVLHQDWLNGKEYKCKVSNKALGAPIEKTISKAKGQPREPQVCTLPPSRDELTKNQVSLSCAVKGFYPSDIAVEWESNGQPENNYKTTPPVLDSDGSFFLVSKLTVDKSRWQQGNVFSCSVMHEALHNHYTQKSLSLSP
# heavy 2: not shown
# B4: control 2+1 CrossMab 8158 (PD1-0103-0312/Nada BBB-format) (bispecific antibody, human IgG1, kappa, L234A L235A)
# light 1: B1 light 2
# light 2: B3 light 2
# heavy 1: DIVMTQSPDSLAVSLGERATINCKASESVDTSDNSFIHWYQQKPGQSPKLLIYRSSTLESGVPDRFSGSGSGTDFTLTISSLQAEDVAVYYCQQNYDVPWTFGQGTKVEIKSSASTKGPSVFPLAPSSKSTSGGTAALGCLVKDYFPEPVTVSWNSGALTSGVHTFPAVLQSSGLYSLSSVVTVPSSSLGTQTYICNVNHKPSNTKVDKKVEPKSCDKTHTCPPCPAPEAAGGPSVFLFPPKPKDTLMISRTPEVTCVVVDVSHEDPEVKFNWYVDGVEVHNAKTKPREEQYNSTYRVVSVLTVLHQDWLNGKEYKCKVSNKALGAPIEKTISKAKGQPREPQVCTLPPSRDELTKNQVSLSCAVKGFYPSDIAVEWESNGQPENNYKTTPPVLDSDGSFFLVSKLTVDKSRWQQGNVFSCSVMHEALHNHYTQKSLSLSPGKGGGGSGGGGSEVQLVESGGGLVQPGGSLRLSCAASGFSIAGTAIHWVRQAPGKGLEWVASISPGGGSTAYADSVKGRFTISADTSKNTAYLQMNSLRAEDTAVYYCSRSGGSGASAMDYWGQGTLVTVSSASTKGPSVFPLAPSSKSTSGGTAALGCLVEDYFPEPVTVSWNSGALTSGVHTFPAVLQSSGLYSLSSVVTVPSSSLGTQTYICNVNHKPSNTKVDEKVEPKSCD
# heavy 2: not shown
# B5: control CrossMab 8014 (PD1-0103-0312/Nada) (bispecific antibody, human IgG1, kappa, L234A L235A)
# heavy 1: EVQLVESGGGLVQPGGSLRLSCAASGFSIAGTAIHWVRQAPGKGLEWVASISPGGGSTAYADSVKGRFTISADTSKNTAYLQMNSLRAEDTAVYYCSRSGGSGASAMDYWGQGTLVTVSSASTKGPSVFPLAPSSKSTSGGTAALGCLVEDYFPEPVTVSWNSGALTSGVHTFPAVLQSSGLYSLSSVVTVPSSSLGTQTYICNVNHKPSNTKVDEKVEPKSCDKTHTCPPCPAPEAAGGPSVFLFPPKPKDTLMISRTPEVTCVVVDVSHEDPEVKFNWYVDGVEVHNAKTKPREEQYNSTYRVVSVLTVLHQDWLNGKEYKCKVSNKALGAPIEKTISKAKGQPREPQVCTLPPSRDELTKNQVSLSCAVKGFYPSDIAVEWESNGQPENNYKTTPPVLDSDGSFFLVSKLTVDKSRWQQGNVFSCSVMHEALHNHYTQKSLSLSP
# light 1: B3 light 2
# heavy 2: not shown
# light 2: B1 light 2
# B6: PD1-0103-0312 (antibody, V domains shown)
# VH: EVQLLESGGGLVQPGGSLRLSCAASGFSFSSYTMSWVRQAPGKGLEWVATISGGGRDIYYPDSVKGRFTISRDNSKNTLYLQMNSLRAEDTAVYYCVLLTGRVYFALDSWGQGTLVTVSS
# VL: DIVMTQSPDSLAVSLGERATINCKASESVDTSDNSFIHWYQQKPGQSPKLLIYRSSTLESGVPDRFSGSGSGTDFTLTISSLQAEDVAVYYCQQNYDVPWTFGQGTKVEIK
# Biological target: T1, human PD1 on cells (Jurkat cells expressing human PD1; activated human T cells) (human, UniProt Q15116 25-288)
# Assay: cell-based or functional assay
# T1 sequence (Q15116 25-288 limits assumed): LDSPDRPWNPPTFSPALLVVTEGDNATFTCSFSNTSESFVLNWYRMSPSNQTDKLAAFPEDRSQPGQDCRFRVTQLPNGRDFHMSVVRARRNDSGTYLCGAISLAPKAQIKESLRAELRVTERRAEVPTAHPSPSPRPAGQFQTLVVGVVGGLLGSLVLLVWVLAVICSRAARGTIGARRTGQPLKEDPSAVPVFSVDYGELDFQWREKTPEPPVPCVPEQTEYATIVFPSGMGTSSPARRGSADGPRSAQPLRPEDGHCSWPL
row,Binder,"EC50 (pM) of Granzyme B production, mMLR [pM]"
1,B1,34
2,B2,388
3,B3,117
4,B4,111
5,B5,13100
6,B6,110

# Biological target: T1, human PD1 on cells (Jurkat cells …)
# Assay: cell-based or functional assay
# Remark: another data set of the same source
row,Binder,"Fold activity vs. control (EC50 of Granzyme B, mMLR), control PD1-0103-312 [fold vs PD1-0103-312]"
1,B1,3.82
2,B2,0.47

# Biological target: T1, human PD1 on cells (Jurkat cells …)
# Assay: cell-based or functional assay
# Remark: another data set of the same source
row,Binder,"Fold activity vs. control (EC50 of Granzyme B, mMLR), control 8014 [fold vs 8014]"
1,B1,1560
2,B2,191
